{
  "source": "paper doi:10.1101/2023.12.10.570962",
  "about": "(bioRxiv, 2023)",
  "target": "Legionella collagen-like protein (Lcl) from L. pneumophila strain 130b, intact, residues 1-401 (Legionella pneumophila strain 130b)",
  "assay": "SEC-MALS",
  "data": [
    {"substance": "Legionella collagen-like protein (Lcl) from L. pneumophila strain 130b, intact, residues 1-401 (natural protein)", "values": [
      {"measurement": "stoichiometry N", "value": 3}
    ]}
  ]
}
